This note sets out measurements from PMC7873233.

For assay [1], the target named is 16055 SOSIP.v8.3 (HIV-1 (clade C isolate 16055)). In words: negative-stain EM; PGT145-purified protein, 20-50 ug/mL on carbon-coated Cu grids, 2% uranyl formate, 2D class averages; gp120-gp41 protomers to trimer.
Assay [2] deals with 16055 SOSIP.v5.2 (HIV-1 (clade C isolate 16055)). Described as above.

In assay [1], 16055 SOSIP.v8.3 (complex) came in with a percent native-like trimers of more than 95% and a stoichiometry N of 3.
In assay [2], 16055 SOSIP.v5.2 (complex) gave a percent native-like trimers of 72% and a stoichiometry N of 3.

In general, stoichiometry N refers to a count of units in the complex or per binding partner.
